Assay results taken from article PMC3561149, “Bifurcation of Arabidopsis NLR Immune Signaling via Ca2+-Dependent Protein Kinases”.

Key:
MBP-WRKY48 [1] = biological target: T1, MBP-WRKY48 (Arabidopsis thaliana (Col-0), UniProt Q9FGZ4 1-399); experiment: EMSA; unphosphorylated; EMSA: 5x binding buffer (4% glycerol, 1 mM MgCl2, 0.5 mM EDTA, 0.5 mM DTT, 10 mM Tris-HCl pH 7.5), 1 ug poly-dIdC, BSA, 2.5 ug protein, ~20,000 cpm probe, room; settings: protein: recombinant; tags: MBP (pMAL-C2); label: 32P 5' end label
MBP-WRKY48 [2] = biological target: T1, MBP-WRKY48; experiment: competition; unlabeled competitor vs labeled W-boxes; binding largely reduced; EMSA: 5x binding buffer (4% glycerol, 1 mM MgCl2, 0.5 mM EDTA, 0.5 mM DTT, 10 mM Tris-HCl pH 7.5), 1 ug poly-dIdC, BSA, 2.5 ug protein, ~20,000 cpm probe, room; settings: protein: recombinant; tags: MBP (pMAL-C2); label: none

T1 sequence (Q9FGZ4 whole entry): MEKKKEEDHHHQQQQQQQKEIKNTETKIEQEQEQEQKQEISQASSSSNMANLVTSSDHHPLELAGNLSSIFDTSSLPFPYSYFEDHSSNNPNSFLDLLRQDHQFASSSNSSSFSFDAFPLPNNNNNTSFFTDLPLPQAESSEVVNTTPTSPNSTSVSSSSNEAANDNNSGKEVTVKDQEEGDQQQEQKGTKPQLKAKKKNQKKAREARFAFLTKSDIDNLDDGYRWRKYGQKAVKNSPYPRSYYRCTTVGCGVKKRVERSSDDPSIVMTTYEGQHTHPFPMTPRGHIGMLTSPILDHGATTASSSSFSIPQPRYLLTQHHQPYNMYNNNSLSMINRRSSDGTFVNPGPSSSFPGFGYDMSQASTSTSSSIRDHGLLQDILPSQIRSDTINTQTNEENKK

Binder | binding result (MBP-WRKY48 [1]) | binding result (MBP-WRKY48 [2])
W-boxes probe (four W-boxes of WRKY46 promoter) (dsDNA) DNA 1: CTGTCAATTCTTTGACCCCAGTTGACGAATGTCAATT DNA 2: AATTGACATTCGTCAACTGGGGTCAAAGAATTGACAG | binds | –
mW-boxes probe (mutated W-boxes) (dsDNA) DNA 1: CTTTCAATTCTTTGAACCCAGTTGAAGAATTTCAATT DNA 2: AATTGAAATTCTTCAACTGGGTTCAAAGAATTGAAAG | no binding | –
unlabeled W-boxes oligonucleotide (specific competitor) (dsDNA) DNA 1: CTGTCAATTCTTTGACCCCAGTTGACGAATGTCAATT DNA 2: AATTGACATTCGTCAACTGGGGTCAAAGAATTGACAG | – | binds
